The text below walks through data of PMC7990499, “eIF2B conformation and assembly state regulate the integrated stress response” (eLife, 2021).

Assay [1] deals with eIF2B(αβδγε)2 decamer (human) (UniProt Q14232). Briefly: fluorescence polarisation; displacement of FAM-ISRIB (2.5 nM) from 100 nM eIF2B(αβδγε)2 by titrated eIF2, eIF2-P, eIF2α or eIF2α-P; 30 min at 22°C; 20 mM HEPES-KOH pH 7.5, 100 mM KCl, 5 mM MgCl2, 1 mM TCEP; also timecourses with PKR or λ phosphatase at 5.6 μM eIF2α/eIF2α-P. (Fluorescence polarisation rises when a labelled molecule tumbles more slowly, as on binding a larger partner.)

For assay [2] the target is unchanged.

Take “human phosphorylated eIF2α (eIF2α-P) (from UniProt P05198 1-315) (natural protein)”: the half-maximal inhibitory concentration (IC50) (usually the concentration at which inhibition is half-maximal) in assay [1] worked out at 4000 nM. In assay [2], this substance had a t1/2 of BODIPY-FL-GDP exchange on eIF2 by 10 nM eIF2B(αβδγε)2 (GEF activity) at 0, 0.2, 1 and 2 μM eIF2α-P (control 2.4 min) of 6.7 min.

In turn, “phosphorylated heterotrimeric human eIF2 (eIF2-P) (from UniProt P05198 1-315; P20042 1-333; P41091 1-472) (complex)” gave an IC50 in assay [1] of 210 nM. For the same substance, the t1/2 of BODIPY-FL-GDP exchange on eIF2 by 10 nM eIF2B(αβδγε)2 (GEF activity) at 0, 50, 100 and 250 nM eIF2-P (control 1.6 min) in assay [2] was 7.2 min.
